Data as given in publication PMC5148605, “Prefabrication of a ribosomal protein subcomplex essential for eukaryotic ribosome formation” (eLife, 2016).

Tests used:
GST-Msn5 = target: T1, GST-Msn5 (S. cerevisiae, UniProt P52918 1-1224); assay: pull-down; GST-tagged importins immobilised on Glutathione Sepharose, incubated with buffer, purified Fap7 or Fap7:uS11 for 1 hr, in presence of 100 µl competing E. coli lysate; Coomassie and Western; details: both partners purified
T1 construct: Msn5, S. cerevisiae; source: E. coli BL21, purified as previously described
T1 sequence (looked up): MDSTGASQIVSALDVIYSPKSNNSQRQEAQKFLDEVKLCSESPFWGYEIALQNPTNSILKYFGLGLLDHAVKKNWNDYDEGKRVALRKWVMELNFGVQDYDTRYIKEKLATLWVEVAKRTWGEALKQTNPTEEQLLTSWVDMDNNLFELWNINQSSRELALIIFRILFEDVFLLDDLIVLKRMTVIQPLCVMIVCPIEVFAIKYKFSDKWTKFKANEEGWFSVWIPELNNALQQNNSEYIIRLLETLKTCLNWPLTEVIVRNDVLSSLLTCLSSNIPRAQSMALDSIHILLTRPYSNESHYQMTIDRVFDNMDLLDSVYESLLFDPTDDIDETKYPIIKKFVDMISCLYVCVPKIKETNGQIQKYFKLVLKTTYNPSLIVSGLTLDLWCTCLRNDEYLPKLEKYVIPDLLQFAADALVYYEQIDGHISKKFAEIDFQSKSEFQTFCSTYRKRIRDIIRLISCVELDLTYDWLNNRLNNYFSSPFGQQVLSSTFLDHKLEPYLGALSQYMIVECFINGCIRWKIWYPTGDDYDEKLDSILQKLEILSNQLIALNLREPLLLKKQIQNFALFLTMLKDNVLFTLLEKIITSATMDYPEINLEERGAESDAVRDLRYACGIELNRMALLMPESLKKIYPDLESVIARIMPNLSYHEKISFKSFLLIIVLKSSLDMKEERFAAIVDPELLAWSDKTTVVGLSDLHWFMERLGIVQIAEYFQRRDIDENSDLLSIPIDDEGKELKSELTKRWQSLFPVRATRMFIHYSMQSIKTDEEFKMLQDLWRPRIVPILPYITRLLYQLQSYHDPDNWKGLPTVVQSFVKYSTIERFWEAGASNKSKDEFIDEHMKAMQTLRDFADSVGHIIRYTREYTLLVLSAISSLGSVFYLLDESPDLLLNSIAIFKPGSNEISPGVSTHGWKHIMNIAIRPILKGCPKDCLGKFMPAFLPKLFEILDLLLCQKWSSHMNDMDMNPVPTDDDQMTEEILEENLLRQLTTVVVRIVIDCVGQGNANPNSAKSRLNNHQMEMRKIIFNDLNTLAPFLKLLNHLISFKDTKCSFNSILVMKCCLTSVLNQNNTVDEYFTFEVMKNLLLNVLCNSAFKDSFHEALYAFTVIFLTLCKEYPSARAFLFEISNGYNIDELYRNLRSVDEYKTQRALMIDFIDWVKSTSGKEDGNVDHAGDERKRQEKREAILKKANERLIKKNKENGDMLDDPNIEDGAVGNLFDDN

GST-Kap123 = target: T2, GST-Kap123 (S. cerevisiae, UniProt P40069 1-1113); assay: as above; details: both partners purified
T2 construct: importin Kap123, S. cerevisiae; source: E. coli BL21, purified as previously described
T2 sequence (looked up): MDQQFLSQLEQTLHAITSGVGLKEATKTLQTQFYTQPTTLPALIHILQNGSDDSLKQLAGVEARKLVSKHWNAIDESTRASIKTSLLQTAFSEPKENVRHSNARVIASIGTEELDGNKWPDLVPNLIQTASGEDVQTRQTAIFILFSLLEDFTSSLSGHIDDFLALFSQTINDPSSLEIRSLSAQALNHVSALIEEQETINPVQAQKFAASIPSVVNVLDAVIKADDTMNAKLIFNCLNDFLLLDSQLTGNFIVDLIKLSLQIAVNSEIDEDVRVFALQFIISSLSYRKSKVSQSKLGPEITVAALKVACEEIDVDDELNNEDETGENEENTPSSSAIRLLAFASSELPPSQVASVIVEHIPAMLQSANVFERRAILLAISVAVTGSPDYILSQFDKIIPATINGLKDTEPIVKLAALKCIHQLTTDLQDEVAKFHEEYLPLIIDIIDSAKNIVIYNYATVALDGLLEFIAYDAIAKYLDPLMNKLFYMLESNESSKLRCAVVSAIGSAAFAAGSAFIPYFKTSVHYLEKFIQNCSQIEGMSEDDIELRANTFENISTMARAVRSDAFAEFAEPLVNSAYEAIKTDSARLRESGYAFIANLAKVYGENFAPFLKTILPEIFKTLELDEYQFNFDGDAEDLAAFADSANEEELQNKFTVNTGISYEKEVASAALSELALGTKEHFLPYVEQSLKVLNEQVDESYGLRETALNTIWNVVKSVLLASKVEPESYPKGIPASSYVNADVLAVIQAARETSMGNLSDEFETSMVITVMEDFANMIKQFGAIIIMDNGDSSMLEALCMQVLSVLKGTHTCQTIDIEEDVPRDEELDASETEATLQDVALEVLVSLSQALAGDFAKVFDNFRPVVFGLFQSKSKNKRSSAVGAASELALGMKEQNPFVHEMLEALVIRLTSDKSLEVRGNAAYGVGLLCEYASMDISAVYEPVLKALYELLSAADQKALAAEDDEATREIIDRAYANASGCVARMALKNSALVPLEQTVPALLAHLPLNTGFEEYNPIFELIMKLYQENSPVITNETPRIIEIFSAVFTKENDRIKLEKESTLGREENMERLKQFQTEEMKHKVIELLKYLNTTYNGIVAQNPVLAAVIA

binding result (GST-Msn5): binds
binding result (GST-Kap123): binds
B1: Fap7 (enzyme, S. cerevisiae, UniProt Q12055 1-197, looked up)
chain: MEARRYGPNIIVTGTPGCGKSSTCEFLKNKLKDYKYYNISDFAKDNDCFEGYDEGRKSHIVDEDKLLDMLEPLLRQGNSIVDWHVNDVFPERLIDLVVVLRCDNSNLYSRLHARGYHDSKIEENLDAEIMGVVKQDAVESYEPHIVVELQSDTKEDMVSNVSRIVAWEKMWLEQHPDGVTNEYQGPRSDDEDDEDSE
notes: Fap7, conserved ATPase, S. cerevisiae (YDL166C); only the complex is printed as His6-Fap7:uS11; also called purified Fap7; Fap7 alone; source: E. coli BL21, purified
